How the values were obtained:
[1] = biological target: T1, HLA-B*0702 molecule on HLA-B*0702 transfected TAP deficient T2 cells (T2-B7) (human); experiment: MHC stabilization assay on T2-B7 cells, ME-1 staining; ratio of concentration inducing 20% of HLA-B*0702 expression against reference peptide CMV265-274; details: remark: other sources report otherwise
[2] = biological target: T1, HLA-B*0702 molecule on HLA-B*0702 …; experiment: MHC stabilization assay on T2-B7 cells, flow cytometry with ME.1; ratio of concentration giving 20% of maximal binding against reference peptide R10TV; details: remark: other sources report otherwise

| RA (relative affinity) [1] | relative avidity [2] | Binder |
| --- | --- | --- |
| > 10 |  | DPRRLVQLL [hTERT peptide p444 (…, residues 444-452)] |
|  | 4.7 | RPAEEATSL [hTERT peptide p277 (…, residues 277-285)] |

Reference: patent publication US20090175892A1
